Measured values taken from article PMC13571933, “Active transport by cytoplasmic dynein sustains dendritic MAP2 localization in developing neurons” (The Journal of Biological Chemistry, 2026).

B1: GFP-MAP2C (human MAP2C tagged with AcGFP and 6xHis, wild type), expressed in cultured rat hippocampal neurons (natural protein, UniProt P11137-2 1-471, looked up)
chain: MADERKDEAKAPHWTSAPLTEASAHSHPPEIKDQGGAGEGLVRSANGFPYREDEEGAFGEHGSQGTYSNTKENGINGELTSADRETAEEVSARIVQVVTAEAVAVLKGEQEKEAQHKDQTAALPLAAEETANLPPSPPPSPASEQTVTVEEAAGGESALAPSVFKQAKDKVSDGVTKSPEKRSSLPRPSSILPPRRGVSGDRDENSFSLNSSISSSARRTTRSEPIRRAGKSGTSTPTTPGSTAITPGTPPSYSSRTPGTPGTPSYPRTPHTPGTPKSAILVPSEKKVAIIRTPPKSPATPKQLRLINQPLPDLKNVKSKIGSTDNIKYQPKGGQVQIVTKKIDLSHVTSKCGSLKNIRHRPGGGRVKIESVKLDFKEKAQAKVGSLDNAHHVPGGGNVKIDSQKLNFREHAKARVDHGAEIITQSPGRSSVASPRRLSNVSSSGSINLLESPQLATLAEDVTAALAKQGL
notes: MAP2C, low molecular weight isoform of human microtubule-associated protein 2; the 471-amino-acid isoform; Same construct as m1, other host; also called wild-type GFP-MAP2C; WT; source: cultured rat hippocampal neurons, transfected, in living cells; not shown: AcGFP, N-terminal, kept

Assays:
[1] = target: GFP-MAP2C ΔSP (human MAP2C lacking the serine/proline-rich region), expressed in HEK293 cells (human) (UniProt P11137); assay: co-IP; anti-His antibody on Dynabeads Protein G; 500 μg lysate of HEK293 cells co-expressing DHC1 and GFP-His-MAP2C; 50 mM Hepes pH 7.4, 100 mM NaCl, 2 mM EDTA, 0.5% Triton X-100; 1 h at 4 °C; blot with anti-DHC1 and anti-GFP, bands quantified with ImageJ
[2] = target: T1, microtubules (MTs), endogenous in cultured rat hippocampal neurons (rat (endogenous in hippocampal neurons), UniProt Q4QRB4 1-450, Representative alpha/beta heterodimer of a microtubule polymer (many copies). Endogenous neuronal microtubules are a mixture of tubulin isotypes. The alpha member is not told in the paper (Tuba1a assu)); assay: FRAP fitted with a reaction-diffusion simulation; as a3 but with 40 μM MT binding sites assumed; conditions: partners not purified
[3] = target: T1, microtubules (MTs), endogenous in …; assay: FRAP fitted with a reaction-diffusion simulation; FRAP of GFP-MAP2C in living neurons; KD from the best fit of a VCell simulation; 75 μM MT binding sites, 25 μM GFP-MAP2C and 5 μM endogenous MAP2 assumed; kon set, koff adjusted; conditions: partners not purified

| Molecule | co-immunoprecipitated DHC1 normalized to immunoprecipitated GFP-MAP2C, relative to WT (relative to the WT condition (set to 1)) [1] | Kd [2] [nM] | Kd [3] [nM] |
| --- | --- | --- | --- |
| cytoplasmic dynein heavy chain 1 (DHC1), expressed from a plasmid in HEK293 cells, Q14204 1-4646 | 0.45 |  |  |
| B1 |  | 1000 | 4500 |
